Positions count from the first letter of the chain named. In names and notes the source's numbering stands. Several values for one entry are separate records, joined by “and”; a condition that tells them apart may be missing. Equal entries are not always repeated. Where two headings read alike, the source gives them in different places.
B1: TY25023 (bispecific antibody, human IgG1, kappa, N297A)
light: not shown
heavy: not shown
chain: EAVVTQEPSLTVSPGGTVTLTCGSSTGAVTTSNYPNWVQQKPGQAPRGLIGGTNKRAPGTPARFSGSLLGGKAALTLSGAQPEDEAEYYCALWYSDLWVFGGGTKLTVLGGGGSGGGGSGGGGSGGGGSEVQLVESGGGLVQPGGSLRLSCAASGFTFSTYAINWVRQAPGKGLEWVSRIRSKYNNYATYYAESVKDRFTISRDDSKNTLYLQINSLRAEDTAVYYCVRHGNFGTSYVSWFAYWGQGTLVTVSSEPKSSDKTHTCPPCPAPELLGGPSVFLFPPKPKDTLMISRTPEVTCVVVDVSHEDPEVKFNWYVDGVEVHNAKTKPREEQYASTYRVVSVLTVLHQDWLNGKEYKCKVSNKALPAPIEKTISKAKGQPREPQVYTDPPSRDELTKNQVSLTCLVDGFYPSDIAVEWESNGQPENCYKTTPPVLDSDGSFFLYSKLTVDKSRWQQGNVFSCSVMHEALHNHYTQDSLSLSPGK
notes: also called anti-CD3 variant TY24742
B2: TY25525 (bispecific antibody, human IgG1, kappa, N297A)
light: not shown
heavy: not shown
chain: B1 chain with E1Q, T60V, D96N, Q142K, T160S, S178G, D197G, T235N, W240Y, F241W
B3: TY25524 (bispecific antibody, human IgG1, kappa, N297A)
light: not shown
heavy: not shown
chain: B1 chain with P35A, N54K, K55F, T60I, L97H, S178G, D197G, V228A
B4: TY24051 (bispecific antibody)
light: not shown
heavy: not shown
chain: QAVVTQEPSLTVSPGGTVTLTCGSSTGAVTTSNYANWVQQKPGQAPRGLIGGTNKRAPGVPARFSGSLLGGKAALTLSGAQPEDEAEYYCALWYSNLWVFGGGTKLTVLRGGGGSGGGGSGGGGSGGGGSEVQLVESGGGLVQPGGSLRLSCAASGFTFNTYAMNWVRQAPGKGLEWVGRIRSKYNNYATYYADSVKGRFTISRDDSKNTLYLQMNSLRAEDTAVYYCVRHGNFGNSYVSWFAYWGQGTLVTVSSEPKSSDKTHTCPPCPAPELLGGPSVFLFPPKPKDTLMISRTPEVTCVVVDVSHEDPEVKFNWYVDGVEVHNAKTKPREEQYASTYRVVSVLTVLHQDWLNGKEYKCKVSNKALPAPIEKTISKAKGQPREPQVYTDPPSRDELTKNQVSLTCLVDGFYPSDIAVEWESNGQPENCYKTTPPVLDSDGSFFLYSKLTVDKSRWQQGNVFSCSVMHEALHNHYTQDSLSLSPGK
notes: also called parental HER2xCD3 bispecific antibody; anti-CD3 variant TAC2225
B5: TAC2245 (antibody, V domains shown)
VH: QVQLVQSGGGVVQPGRSLRLSCKASGYTFTRYTMHWVRQAPGKGLEWIGYINPSRGYTNYNQKVKDRFTISRDNSKNTAFLQMDSLRPEDTGVYFCARYYDDHYSLDYWGQGTPVTVSS
VL: DIQMTQSPSSLSASVGDRVTITCSASSSVSYMNWYQQTPGKAPKRWIYDTSKLASGVPSRFSGSGSGTDYTFTISSLQPEDIATYYCQQWSSNPFTFGQGTKLQIT
notes: also called huOKT3-C114S-gLC; parental huOKT3 anti-CD3 antibody
B6: TY23104 (antibody, human IgG4 S228P, kappa)
light: EVGSYAYHDDDCPDDDYDCASSGRSAGGGGTPLGLAGSGGSDIQMTQSPSSLSASVGDRVTITCSASSSVSYMNWYQQTPGKAPKRWIYDTSKLASGVPSRFSGSGSGTDYTFTISSLQPEDIATYYCQQWSSNPFTFGQGTKLQITRTVAAPSVFIFPPSDEQLKSGTASVVCLLNNFYPREAKVQWKVDNALQSGNSQESVTEQDSKDSTYSLSSTLTLSKADYEKHKVYACEVTHQGLSSPVTKSFNRGEC
heavy: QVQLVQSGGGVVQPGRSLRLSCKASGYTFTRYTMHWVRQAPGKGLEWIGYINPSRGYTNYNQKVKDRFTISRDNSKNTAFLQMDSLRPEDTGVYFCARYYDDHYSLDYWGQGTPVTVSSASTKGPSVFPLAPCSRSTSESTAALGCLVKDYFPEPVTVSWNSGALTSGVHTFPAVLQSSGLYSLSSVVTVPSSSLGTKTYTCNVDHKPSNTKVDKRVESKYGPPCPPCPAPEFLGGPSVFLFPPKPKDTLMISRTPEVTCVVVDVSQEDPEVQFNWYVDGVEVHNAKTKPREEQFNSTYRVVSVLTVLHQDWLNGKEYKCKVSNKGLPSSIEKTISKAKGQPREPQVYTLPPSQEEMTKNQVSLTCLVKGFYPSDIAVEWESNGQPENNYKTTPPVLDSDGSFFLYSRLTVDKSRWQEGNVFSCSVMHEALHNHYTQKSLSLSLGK
notes: also called anti-CD3 SAFEbody

What was measured:
[1] = molecular target: T1, human CD3 on cells (Jurkat cells, human T cells) (human, UniProt P07766 23-207); experiment: Jurkat cell binding
T1 construct: whole, on cells

[2] = molecular target: T1, human CD3 on cells (Jurkat cells, human …); experiment: Jurkat cell binding; remark: listed apart in the source
[3] = molecular target: T1, human CD3 on cells (Jurkat cells, human …); experiment: flow cytometry on Jurkat cells, anti-human IgG AF647 secondary antibody
Description: The ability of the parental huOKT3 anti-CD3 antibody TAC2245 and the activatable huOKT3 anti-CD3 antibody TY23104 to bind Jurkat cells was measured in a dose-dependent binding assay.
The Jurkat cells were thawed, washed and cultured in an incubator. 4×10⁵ Jurkat cells/well were aliquoted into 96-well plate and incubated with parental huOKT3 TAC2245 or activatable huOKT3 for 1 hour at 4° C. After centrifugation and washing, Jurkat cells were further incubated with the secondary antibody anti-human IgG AF647 for 30 minutes at 4° C. After centrifugation and washing, the Jurkat cells labelled with antibodies were re-suspended in 2% FBS DPBS and analyzed by FACS.

T1 sequence (P07766 23-207): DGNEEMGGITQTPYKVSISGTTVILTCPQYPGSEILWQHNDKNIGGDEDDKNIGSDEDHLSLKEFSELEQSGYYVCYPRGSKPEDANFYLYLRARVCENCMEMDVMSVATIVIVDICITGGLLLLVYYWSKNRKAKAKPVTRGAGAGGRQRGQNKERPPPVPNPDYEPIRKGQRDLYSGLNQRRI

| Binder | EC50 [1] | EC50 [2] [nM] | EC50 (read off the curve) [3] [nM] |
| --- | --- | --- | --- |
| B1 | > 1000 nM and 480 nM |  |  |
| B2 |  | 6.88 |  |
| B3 |  | 260 |  |
| B4 | 15.3 nM and 10.2 nM |  |  |
| B5 |  |  | ~0.3 |
| B6 |  |  | ~70 |

Source: patent US20250326860A1 (ADAGENE PTE, published 2025)
